Test results from publication PMC6344286 (Arteriosclerosis, thrombosis, and vascular biology, 2019).

What was measured:
[1] = target: T1, p47phox, recombinant wild type (human), P14598; assay: non-reducing SDS-PAGE of a disulfide-linked complex; conditions: remark: other sources report otherwise
T1 chain: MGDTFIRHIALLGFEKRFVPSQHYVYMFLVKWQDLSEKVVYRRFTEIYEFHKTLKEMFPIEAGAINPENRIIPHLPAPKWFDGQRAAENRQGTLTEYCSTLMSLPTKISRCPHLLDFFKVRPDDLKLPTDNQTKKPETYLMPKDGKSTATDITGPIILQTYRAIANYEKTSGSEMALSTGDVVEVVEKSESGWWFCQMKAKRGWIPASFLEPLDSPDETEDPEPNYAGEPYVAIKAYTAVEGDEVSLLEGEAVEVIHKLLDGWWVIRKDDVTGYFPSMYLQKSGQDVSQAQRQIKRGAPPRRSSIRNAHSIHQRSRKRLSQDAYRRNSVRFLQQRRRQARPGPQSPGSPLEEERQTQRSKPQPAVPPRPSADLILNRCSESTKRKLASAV

[2] = target: Protein disulfide isomerase A1 (PDI), recombinant wild type (human, UniProt P07237 18-508); assay: as above
Protein disulfide isomerase A1 (PDI), recombinant wild type, sequence (P07237 18-508): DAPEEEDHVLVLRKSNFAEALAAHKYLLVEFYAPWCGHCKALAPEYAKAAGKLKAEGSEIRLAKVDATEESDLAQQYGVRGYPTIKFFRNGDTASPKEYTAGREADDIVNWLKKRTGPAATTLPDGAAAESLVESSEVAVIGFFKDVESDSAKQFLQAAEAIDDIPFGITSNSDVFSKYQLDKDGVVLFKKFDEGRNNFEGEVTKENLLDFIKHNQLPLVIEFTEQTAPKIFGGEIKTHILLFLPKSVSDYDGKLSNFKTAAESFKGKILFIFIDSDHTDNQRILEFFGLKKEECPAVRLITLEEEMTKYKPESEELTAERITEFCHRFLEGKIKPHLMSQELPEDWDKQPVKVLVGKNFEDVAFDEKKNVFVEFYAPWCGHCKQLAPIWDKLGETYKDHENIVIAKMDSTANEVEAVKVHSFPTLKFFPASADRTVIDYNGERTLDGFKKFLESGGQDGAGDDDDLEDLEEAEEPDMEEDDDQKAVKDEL

stoichiometry N [1]: 2 | binding result [2]: binds
B1: p47phox, recombinant wild type (natural protein, human, UniProt P14598 1-390, looked up)
chain: T1 chain
